# From the MegaScale stability set (Tsuboyama et al. 2023)
# B1: 2K2A (parent)
# chain: ELREAFRLYDKEGNGYISTDVMREILAELDETLSSEDLDAMIDEIDADGSGTVDFEEFMGVMT
# Variants of: B1
# Assay: folding stability dG (cDNA display proteolysis); higher = more stable
# Conditions: PBS, room temperature
row,Variant,folding stability dG [kcal/mol]
1,ELREAFRLYDKEGNGYISTDVMREILAELDETLSSEDLNAMIDEIDADGSGTVDFEEFMGVMT,1.58
2,ELREAFRLYDKEGNGYISTDVMREILAELDETLSSEDLPAMIDEIDADGSGTVDFEEFMGVMT,-0.067
3,ELREAFRLYDKEGNGYISTDVMREILAELDETLSSEDLHAMIDEIDADGSGTVDFEEFMGVMT,1.13
4,ELREAFRLYDKEGNGYISTDVMREILAELDETLSSEDLMAMIDEIDADGSGTVDFEEFMGVMT,1.32
5,ELREAFRLYDKEGNGYISTDVMREILAELDETLSSEDLAAMIDEIDADGSGTVDFEEFMGVMT,1.48
6,ELREAFRLYDKEGNGYISTDVMREILAELDETLSSEDLSAMIDEIDADGSGTVDFEEFMGVMT,1.39
7,ELREAFRLYDKEGNGYISTDVMREILAELDETLSSEDKDAMIDEIDADGSGTVDFEEFMGVMT,0.304
8,ELREAFRLYDKEGNGYISTDVMREILAELDETLSSEDMDAMIDEIDADGSGTVDFEEFMGVMT,1.26
9,ELREAFRLYDKEGNGYISTDVMREILAELDETLSSEDADAMIDEIDADGSGTVDFEEFMGVMT,0.262
10,ELREAFRLYDKEGNGYISTDVMREILAELDETLSSEDQDAMIDEIDADGSGTVDFEEFMGVMT,0.089
11,ELREAFRLYDKEGNGYISTDVMREILAELDETLSSEDTDAMIDEIDADGSGTVDFEEFMGVMT,0.114
12,ELREAFRLYDKEGNGYISTDVMREILAELDETLSSEDYDAMIDEIDADGSGTVDFEEFMGVMT,0.134
13,ELREAFRLYDKEGNGYISTDVMREILAELDETLSSEDSDAMIDEIDADGSGTVDFEEFMGVMT,-0.47
14,ELREAFRLYDKEGNGYISTDVMREILAELDETLSSEDHDAMIDEIDADGSGTVDFEEFMGVMT,-0.529
15,ELREAFRLYDKEGNGYISTDVMREILAELDETLSSEDRDAMIDEIDADGSGTVDFEEFMGVMT,0.432
16,ELREAFRLYDKEGNGYISTDVMREILAELDETLSSEDCDAMIDEIDADGSGTVDFEEFMGVMT,0.399
17,ELREAFRLYDKEGNGYISTDVMREILAELDETLSSEDVDAMIDEIDADGSGTVDFEEFMGVMT,1.52
18,ELREAFRLYDKEGNGYISTDVMREILAELDETLSSEDWDAMIDEIDADGSGTVDFEEFMGVMT,0.599
19,ELREAFRLYDKEGNGYISTDVMREILAELDETLSSEDPDAMIDEIDADGSGTVDFEEFMGVMT,-0.322
20,ELREAFRLYDKEGNGYISTDVMREILAELDETLSSEDGDAMIDEIDADGSGTVDFEEFMGVMT,-0.721
21,ELREAFRLYDKEGNGYISTDVMREILAELDETLSSEDIDAMIDEIDADGSGTVDFEEFMGVMT,1.99
22,ELREAFRLYDKEGNGYISTDVMREILAELDETLSSEDFDAMIDEIDADGSGTVDFEEFMGVMT,0.593

row,Variant,folding stability dG [kcal/mol]
1,ELREAFRLYDKEGNGYISTDVMREILAELDETLSSEDEDAMIDEIDADGSGTVDFEEFMGVMT,-0.551
2,ELREAFRLYDKEGNGYISTDVMREILAELDETLSSEDDDAMIDEIDADGSGTVDFEEFMGVMT,-0.787
3,ELREAFRLYDKEGNGYISTDVMREILAELDETLSSEFLDAMIDEIDADGSGTVDFEEFMGVMT,1.22
4,ELREAFRLYDKEGNGYISTDVMREILAELDETLSSECLDAMIDEIDADGSGTVDFEEFMGVMT,2
5,ELREAFRLYDKEGNGYISTDVMREILAELDETLSSEPLDAMIDEIDADGSGTVDFEEFMGVMT,-0.169
6,ELREAFRLYDKEGNGYISTDVMREILAELDETLSSEELDAMIDEIDADGSGTVDFEEFMGVMT,2.08
7,ELREAFRLYDKEGNGYISTDVMREILAELDETLSSEYLDAMIDEIDADGSGTVDFEEFMGVMT,1.26
8,ELREAFRLYDKEGNGYISTDVMREILAELDETLSSENLDAMIDEIDADGSGTVDFEEFMGVMT,1.32
9,ELREAFRLYDKEGNGYISTDVMREILAELDETLSSEILDAMIDEIDADGSGTVDFEEFMGVMT,1.65
10,ELREAFRLYDKEGNGYISTDVMREILAELDETLSSERLDAMIDEIDADGSGTVDFEEFMGVMT,1.82
11,ELREAFRLYDKEGNGYISTDVMREILAELDETLSSEHLDAMIDEIDADGSGTVDFEEFMGVMT,1.4
12,ELREAFRLYDKEGNGYISTDVMREILAELDETLSSELLDAMIDEIDADGSGTVDFEEFMGVMT,1.59
13,ELREAFRLYDKEGNGYISTDVMREILAELDETLSSEVLDAMIDEIDADGSGTVDFEEFMGVMT,1.66
14,ELREAFRLYDKEGNGYISTDVMREILAELDETLSSEMLDAMIDEIDADGSGTVDFEEFMGVMT,1.96
15,ELREAFRLYDKEGNGYISTDVMREILAELDETLSSEGLDAMIDEIDADGSGTVDFEEFMGVMT,1.15
16,ELREAFRLYDKEGNGYISTDVMREILAELDETLSSEKLDAMIDEIDADGSGTVDFEEFMGVMT,1.71
17,ELREAFRLYDKEGNGYISTDVMREILAELDETLSSEWLDAMIDEIDADGSGTVDFEEFMGVMT,1.56
18,ELREAFRLYDKEGNGYISTDVMREILAELDETLSSEALDAMIDEIDADGSGTVDFEEFMGVMT,1.86
19,ELREAFRLYDKEGNGYISTDVMREILAELDETLSSESLDAMIDEIDADGSGTVDFEEFMGVMT,1.52
20,ELREAFRLYDKEGNGYISTDVMREILAELDETLSSEQLDAMIDEIDADGSGTVDFEEFMGVMT,2.1
21,ELREAFRLYDKEGNGYISTDVMREILAELDETLSSETLDAMIDEIDADGSGTVDFEEFMGVMT,1.76
